Data taken from patent US20200216522A1 (DENALI THERAPEUTICS, published 2020).

How the values were obtained:
Assay in all cases: peptide array
Peptide_082 = biological target: T1, Peptide_082 (human)
T1 peptide: RHLSNVSSTGSIDMV
In short: (§1)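 Overlapping 15-mer peptides (5-aa offset) spanning human 2N4R Tau spotted in triplicate on slides; antibodies bound 2 h at room temperature in 3% BSA-TBST (chimeric IgG 5 μg/mL; mouse IgG 30 μg/mL). Detection 1 h with fluorescent anti-human (568 nm) or anti-mouse (647 nm) secondary; fluorescence imaging aligned to array map.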

Peptide_035 = biological target: T2, Peptide_035 (human)
T2 peptide: IPAKTPPAPKTPPSS
In short: as §1

Peptide_007 = biological target: T3, Peptide_007 (human)
T3 peptide: MHQDQEGDTDAGLKE
In short: as §1

Peptide_071 = biological target: T4, Peptide_071 (human)
T4 peptide: QSKIGSLDNITHVPG
In short: as §1

Peptide_013 = biological target: T5, Peptide_013 (human)
T5 peptide: SETSDAKSTPTAEDV
In short: as §1

Peptide_068 = biological target: T6, Peptide_068 (human)
T6 peptide: QVEVKSEKLDFKDRV
In short: as §1

Peptide_064 = biological target: T7, Peptide_064 (human)
T7 peptide: SKVTSKCGSLGNIHH
In short: as §1

Peptide_048 = biological target: T8, Peptide_048 (human)
T8 peptide: PSSAKSRLQTAPVPM
In short: as §1

Peptide_027 = biological target: T9, Peptide_027 (human)
T9 peptide: SKDGTGSDDKKAKGA
In short: as §1

Peptide_049 = biological target: T10, Peptide_049 (human)
T10 peptide: SRLQTAPVPMPDLKN
In short: as §1

Peptide_016 = biological target: T11, Peptide_016 (human)
T11 peptide: TAPLVDEGAPGKQAA
In short: as §1

Peptide_075 = biological target: T12, Peptide_075 (human)
T12 peptide: IETHKLTFRENAKAK
In short: as §1

Peptide_029 = biological target: T13, Peptide_029 (human)
T13 peptide: KAKGADGKTKIATPR
In short: as §1

Peptide_080 = biological target: T14, Peptide_080 (human)
T14 peptide: SPVVSGDTSPRHLSN
In short: as §1

Peptide_057 = biological target: T15, Peptide_057 (human)
T15 peptide: KLDLSNVQSKCGSKD
In short: as §1

Peptide_070 = biological target: T16, Peptide_070 (human)
T16 peptide: FKDRVQSKIGSLDNI
In short: as §1

Peptide_065 = biological target: T17, Peptide_065 (human)
T17 peptide: KCGSLGNIHHKPGGG
In short: as §1

Peptide_060 = biological target: T18, Peptide_060 (human)
T18 peptide: NIKHVPGGGSVQIVY
In short: as §1

Peptide_087 = biological target: T19, Peptide_087 (human)
T19 peptide: TLADEVSASLAKQGL
In short: as §1

Peptide_066 = biological target: T20, Peptide_066 (human)
T20 peptide: GNIHHKPGGGQVEVK
In short: as §1

Peptide_022 = biological target: T21, Peptide_022 (human)
T21 peptide: AGIGDTPSLEDEAAG
In short: as §1

Peptide_086 = biological target: T22, Peptide_086 (human)
T22 peptide: ATLADEVSASLAKQG
In short: as §1

Peptide_039 = biological target: T23, Peptide_039 (human)
T23 peptide: SGDRSGYSSPGSPGT
In short: as §1

Peptide_040 = biological target: T24, Peptide_040 (human)
T24 peptide: GYSSPGSPGTPGSRS
In short: as §1

Peptide_079 = biological target: T25, Peptide_079 (human)
T25 peptide: EIVYKSPVVSGDTSP
In short: as §1

Peptide_028 = biological target: T26, Peptide_028 (human)
T26 peptide: GSDDKKAKGADGKTK
In short: as §1

Peptide_037 = biological target: T27, Peptide_037 (human)
T27 peptide: TPPSSGEPPKSGDRS
In short: as §1

Peptide_069 = biological target: T28, Peptide_069 (human)
T28 peptide: SEKLDFKDRVQSKIG
In short: as §1

Peptide_032 = biological target: T29, Peptide_032 (human)
T29 peptide: GAAPPGQKGQANATR
In short: as §1

Peptide_072 = biological target: T30, Peptide_072 (human)
T30 peptide: SLDNITHVPGGGNKK
In short: as §1

Peptide_078 = biological target: T31, Peptide_078 (human)
T31 peptide: TDHGAEIVYKSPVVS
In short: as §1

B1: murine anti-Tau hybridoma antibody 17G2.A1 (antibody, V domains shown)
VH: QVQLQQPGAELVGPGSSVKLSCKASGYTFINYWIDWMKQSPGQGLEWIGNIYPSDSESHYNQKFTDKATLTVDISSSTAYLQLSSLTSEDSAVYYCALYSKGYWGQGTSVTVSS
VL: DVLMTQTPLSLPVTLGDQASISCRSSQNIVHTNGNTYLEWYLQKPGQSPKLLIYKLSSRFSGVPDRFSGSGSGTDFTLKISRVEAEDLGVYYCFQGSHLPFTFGGGTKLEIKR
notes: mouse IgG from hybridoma; also called anti-Tau 17G2.A1
binding result (Peptide_082): no binding (tested: 30 ug/mL)
binding result (Peptide_035): no binding (tested: 30 ug/mL)
binding result (Peptide_007): no binding (tested: 30 ug/mL)
binding result (Peptide_071): no binding (tested: 30 ug/mL)
binding result (Peptide_013): no binding (tested: 30 ug/mL)
binding result (Peptide_068): no binding (tested: 30 ug/mL)
binding result (Peptide_064): no binding (tested: 30 ug/mL)
binding result (Peptide_048): no binding (tested: 30 ug/mL)
binding result (Peptide_027): no binding (tested: 30 ug/mL)
binding result (Peptide_049): no binding (tested: 30 ug/mL)
binding result (Peptide_016): no binding (tested: 30 ug/mL)
binding result (Peptide_075): no binding (tested: 30 ug/mL)
binding result (Peptide_029): no binding (tested: 30 ug/mL)
binding result (Peptide_080): no binding (tested: 30 ug/mL)
binding result (Peptide_057): no binding (tested: 30 ug/mL)
binding result (Peptide_070): no binding (tested: 30 ug/mL)
binding result (Peptide_065): no binding (tested: 30 ug/mL)
binding result (Peptide_060): no binding (tested: 30 ug/mL)
binding result (Peptide_087): no binding (tested: 30 ug/mL)
binding result (Peptide_066): no binding (tested: 30 ug/mL)
binding result (Peptide_022): no binding (tested: 30 ug/mL)
binding result (Peptide_086): no binding (tested: 30 ug/mL)
binding result (Peptide_039): binds
binding result (Peptide_040): no binding (tested: 30 ug/mL)
binding result (Peptide_079): no binding (tested: 30 ug/mL)
binding result (Peptide_028): no binding (tested: 30 ug/mL)
binding result (Peptide_037): no binding (tested: 30 ug/mL)
binding result (Peptide_069): no binding (tested: 30 ug/mL)
binding result (Peptide_032): no binding (tested: 30 ug/mL)
binding result (Peptide_072): no binding (tested: 30 ug/mL)
binding result (Peptide_078): no binding (tested: 30 ug/mL)
